Laboratory results published in PMC2225407.

These sequences were tested against MBP::FAX-1 (Caenorhabditis elegans) (UniProt G5EDJ0) (assay: EMSA). Conditions: EMSA: 1.5 ug MBP::FAX-1, 4 ng 32P ds oligo, BSA, 30 min pre-incubation + 30 min on ice, 8% native PAGE; binding buffer salt and pH not given.
Sequence of UniProt G5EDJ0 (G5EDJ0 whole entry): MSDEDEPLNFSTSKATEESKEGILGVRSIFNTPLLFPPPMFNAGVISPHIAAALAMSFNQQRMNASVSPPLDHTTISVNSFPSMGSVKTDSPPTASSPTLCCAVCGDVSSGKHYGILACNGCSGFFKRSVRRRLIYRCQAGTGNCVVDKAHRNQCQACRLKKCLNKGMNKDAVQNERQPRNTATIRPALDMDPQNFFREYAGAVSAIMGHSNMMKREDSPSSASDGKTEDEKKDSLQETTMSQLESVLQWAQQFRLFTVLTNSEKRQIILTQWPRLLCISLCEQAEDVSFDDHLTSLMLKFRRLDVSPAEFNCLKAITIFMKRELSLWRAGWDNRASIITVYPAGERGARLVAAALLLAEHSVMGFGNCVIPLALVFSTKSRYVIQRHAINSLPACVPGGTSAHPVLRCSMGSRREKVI
Sequence “AATTACCCTTTTAAAAGTCAAAAGTCAACTTCCAA / TCGATTGGAAGTTGACTTTTGACTTTTAAAAGGGT [DR1A]” has a binding signal (% probe bound) of 53.3. “AATTACCCTTTTAAAAGTCAAAATTCAACTTCCAA / TCGATTGGAAGTTGAATTTTGACTTTTAAAAGGGT [HRSW]” showed a binding signal (% probe bound) of 11.7. In the case of “AATTACCCTTTTAAAAGTCAAAATTTAACTTCCAA / TCGATTGGAAGTTAAATTTTGACTTTTAAAAGGGT [MON1]”, the binding signal (% probe bound) is reported as 2.8. “AATTACCCTTTTAAAATTCAAAAGTCAACTTCCAA / TCGATTGGAAGTTGACTTTTGAATTTTAAAAGGGT [HRWS]” gave a binding signal (% probe bound) of 10.5. For “AATTACCCTTTTAAAATTCAAAATTCAACTTCCAA / TCGATTGGAAGTTGAATTTTGAATTTTAAAAGGGT [DRNC]”, the binding signal (% probe bound) was 0.4. For “AATTACCCTTTTAAAATTTAAAAGTCAACTTCCAA / TCGATTGGAAGTTGACTTTTAAATTTTAAAAGGGT [MON2]”, the binding signal (% probe bound) was 4.5. “AATTACCCTTTTAAACGTCAAACGTCAACTTCCAA / TCGATTGGAAGTTGACGTTTGACGTTTAAAAGGGT [DR1C]” showed a binding signal (% probe bound) of 26.1. With “AATTACCCTTTTAAATGTCAAATGTCAACTTCCAA / TCGATTGGAAGTTGACATTTGACATTTAAAAGGGT [DR1T]” the binding signal (% probe bound) was 29.8.

Same assay, conditions: supershift with anti-FAX-1 shown; EMSA: 1.5 ug MBP::FAX-1, 4 ng 32P ds oligo, BSA, 30 min pre-incubation + 30 min on ice, 8% native PAGE; binding buffer salt and pH not given
With “AATTACCCTTTTAAAGGTCAAAGGTCAACTTCCAA / TCGATTGGAAGTTGACCTTTGACCTTTAAAAGGGT [DR1G]” the binding signal (% probe bound) was 42.1.
